Several values for one entry are separate records, joined by “and”; a condition that tells them apart may be missing. Identical values can stand only once. Marks after values point to notes of the source that are not given here.
How the values were obtained:
CYP3A4 [1] = assay: Western blot with anti-CYP3A12 polyclonal antibody; design: species or system human
Procedure: FIG. 7: Immunoblot of wild-type CYP3A4 (3A4), R130Q (M2), T363M (M5), and P416L (M7). P450 (1 pmol) was loaded into each lane, transferred to nitrocellulose, and probed with anti-3A12 IgG as described in Materials and Methods.
(§1) Mutants were expressed in E. coli TOPP3 cells. Cultures of each strain were started from single colonies in 2-ml of LB media containing ampicillin (50 μg/ml) and tetracycline (15 μg/ml) and grown overnight at 37° C. with shaking. Larger, 20-ml cultures of each sample were inoculated and grown as described for the 2-ml cultures. Starter cultures (15 ml) were inoculated into 250-ml of TB media containing ampicillin (50 μg/ml) and grown 2-3 hr at 37° C. at 250 rpm. δ-aminolevulinic acid (80 mg/L) and IPTG (1 mM) were added and the cultures grown 72 hr at 30° C. at 190 rpm. The cells were harvested, sonicated and CHAPS solubilized, and the protein was purified on Talon Metal Affinity resin from Clontech (Palo Alto, Calif.). Final P450 content was measured by reduced CO difference spectra (Omura, J Biol Chem 239 (1964), 2370-2378), and each protein was visualized on an 8.5% SDS PAGE gel stained with Coomassie blue. Western Blot analysis of CYP3A4 wild-type, M2, M5 and M7 was performed by resolving 1 pmol of 3A4 wildtype and M5, and 8 μl of M2 and M7 total protein sample on an 8.5% SDS PAGE gel. The samples were then transferred to nitrocellulose and probed with an anti-3A12 polyclonal antibody known to cross-react with CYP3A4 (Ciaccio, Arch Biochem Biophys 271 (1989), 284-99).
The effect of the protein variants on the expression level and catalytical activity of CYP3A4 was investigated using a bacterial CYP3A4 expression system. Sequence variants were introduced into the pSE3A4H expression vector (Harlow, J Biol Chem 272 (1997), 5396-402) which encodes for a CYP3A4 protein identical to that found in most Caucasians. […] Mutants M1-M8 were expressed in E. coli as described in Example 5, the expression of the CYP3A4 holoenzyme assessed by measuring reduced CO difference spectra, and the protein purified. […]

CYP3A4 holoenzyme = assay: Expression of CYP3A4 holoenzyme in E. coli, reduced CO difference spectra; design: species or system human
Procedure: as §1
The effect of the protein variants on the expression level and catalytical activity of CYP3A4 was investigated using a bacterial CYP3A4 expression system. Sequence variants were introduced into the pSE3A4H expression vector (Harlow, J Biol Chem 272 (1997), 5396-402) which encodes for a CYP3A4 protein identical to that found in most Caucasians. No other, unwanted mutations were introduced into the CYP3A4 insert or the promoter driving its expression as confirmed by sequencing. Mutants M1-M8 were expressed in E. coli as described in Example 5, the expression of the CYP3A4 holoenzyme assessed by measuring reduced CO difference spectra, and the protein purified. All but M2, M5 and M7 mutants were detectable at levels similar to CYP3A4. […] The expression of M2, M5, and M7 was further investigated by Western Blotting using an anti-CYP3A12 polyclonal antibody known to cross-react with CYP3A4 (Ciaccio, Arch Biochem Biophys 271 (1989), 284-99) as described in Example 5.

CYP3A4 [2] = assay: 7-Benzyloxy-4-(trifluoromethyl)coumarin (7-BFC) debenzylase activity of wild-type and mutant CYP3A4 proteins; format: biochemical, human; conditions: for 7-BFC debenzylase activity, 7-hydroxy-4-(trifluoromethyl)coumarin: substrate 7-BFC
Procedure: as §1
(§2) Following the reconstitution with NADPH-cytochrome P450 reductase and cytochrome b5, the catalytical activities of M1, M4, M5 and M6 variants were measured using testosterone, progesterone and 7-BFC as substrates (Tables 5-7).

CYP3A4 [3] = assay: Progesterone hydroxylase activity of wild-type and mutant CYP3A4 proteins; format: biochemical, human
Procedure: as §1, §2

CYP3A4 [4] = assay: Testosterone hydroxylase activity of wild-type and mutant CYP3A4 proteins (reconstituted with NADPH-cytochrome P450 reductase and cytochrome b5); format: biochemical, human; conditions: for Testosterone hydroxylase activity relative to wild-type CYP3A4: 25 μM testosterone (lower steroid concentration)
Procedure: as §1, §2

CYP3A4 [5] = biological target: T1, CYP3A4 (Homo sapiens, UniProt P08684, T363M); assay: 7-Benzyloxy-4-(trifluoromethyl)coumarin (7-BFC) debenzylase activity of wild-type and mutant CYP3A4 proteins; format: biochemical; conditions: Table 7
T1 construct: made in house; host or cells: E. coli TOPP3
Procedure: as §1, §2

CYP3A4 [6] = biological target: T1, CYP3A4; assay: Progesterone hydroxylase activity of wild-type and mutant CYP3A4 proteins; format: biochemical; conditions: Table 6
Procedure: as §1, §2

CYP3A4 [7] = biological target: T1, CYP3A4; assay: Testosterone hydroxylase activity of wild-type and mutant CYP3A4 proteins (reconstituted with NADPH-cytochrome P450 reductase and cytochrome b5); format: biochemical; conditions: Table 5
Procedure: as §1, §2

CYP3A4 [8] = biological target: T2, CYP3A4 (Homo sapiens, UniProt P08684, D174H); assay: Progesterone hydroxylase activity of wild-type and mutant CYP3A4 proteins; format: biochemical; conditions: lower steroid concentration
T2 construct: made in house; host or cells: E. coli TOPP3
Procedure: as §1, §2

[9] = E. coli expression, reduced CO difference spectra

T1 sequence (P08684 2-503 T363M): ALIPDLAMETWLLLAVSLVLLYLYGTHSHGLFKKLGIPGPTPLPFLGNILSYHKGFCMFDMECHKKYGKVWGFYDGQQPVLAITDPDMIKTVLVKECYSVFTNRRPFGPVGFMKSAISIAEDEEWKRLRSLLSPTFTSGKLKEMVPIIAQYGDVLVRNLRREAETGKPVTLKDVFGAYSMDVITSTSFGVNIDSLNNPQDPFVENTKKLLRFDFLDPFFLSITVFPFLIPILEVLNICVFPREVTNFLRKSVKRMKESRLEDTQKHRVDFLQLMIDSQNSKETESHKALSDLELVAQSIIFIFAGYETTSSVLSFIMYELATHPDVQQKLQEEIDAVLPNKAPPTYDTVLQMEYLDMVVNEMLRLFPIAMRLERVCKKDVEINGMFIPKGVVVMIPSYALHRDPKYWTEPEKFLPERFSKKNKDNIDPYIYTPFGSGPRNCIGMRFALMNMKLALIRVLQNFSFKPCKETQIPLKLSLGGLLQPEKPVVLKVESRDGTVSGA
T2 sequence (P08684 2-503 D174H): as the sequence (P08684 2-503 T363M) above, with D173H, M362T counted along it

Row | Substance | Band in immunoblot (CYP3A4 [1]) | Effect of mutation on expression of CYP3A4 holoenzyme (conclusion) (CYP3A4 holoenzyme) | 7-BFC debenzylase activity, 7-hydroxy-4-(trifluoromethyl)coumarin (CYP3A4 [2]) | Progesterone hydroxylase 6β/16α ratio (CYP3A4 [3]; 25 μM progesterone) | Progesterone hydroxylase activity, 6β-OH (CYP3A4 [3]; 25 μM progesterone) | Progesterone hydroxylase activity, 16α-OH (CYP3A4 [3]; 25 μM progesterone) | Progesterone hydroxylase 6β/16α ratio (CYP3A4 [3]; 150 μM progesterone) | Progesterone hydroxylase activity, 6β-OH (CYP3A4 [3]; 150 μM progesterone) | Progesterone hydroxylase activity, 16α-OH (CYP3A4 [3]; 150 μM progesterone) | Testosterone hydroxylase metabolite profile compared with wild-type CYP3A4 (CYP3A4 [4]) | Testosterone hydroxylase activity, 2β-OH (CYP3A4 [4]; 25 μM testosterone) | Testosterone hydroxylase activity, 6β-OH (CYP3A4 [4]; 25 μM testosterone) | Testosterone hydroxylase activity, 15β-OH (CYP3A4 [4]; 25 μM testosterone) | Testosterone hydroxylase activity, 2β-OH (CYP3A4 [4]; 400 μM testosterone) | Testosterone hydroxylase activity, 6β-OH (CYP3A4 [4]; 400 μM testosterone) | Testosterone hydroxylase activity, 15β-OH (CYP3A4 [4]; 400 μM testosterone) | also measured
1 | M2: CYP3A4 protein variant R130Q (g.13908G>A, exon 5) [Mutant M2] | Bands of the expected size | abolish | – | – | – | – | – | – | – | – | – | – | – | – | – | – | Detectable P450 holoprotein, in words (CYP3A4 holoenzyme; [9]): no detectable P450 holoprotein
2 | M6: CYP3A4 protein variant L373F (g.21896C>T, exon 11) [Mutant M6] | – | – | 4.5 nmol product/min/nmol protein and 5.2 nmol product/min/nmol protein | 7.5 and 7.7 | 15.8, nmol product/min/nmol protein and 12.3 nmol product/min/nmol protein | 2.1 nmol product/min/nmol protein and 1.6 nmol product/min/nmol protein | 7.9 and 7.7 | 40.1 nmol product/min/nmol protein and 49.8 nmol product/min/nmol protein | 5.1 nmol product/min/nmol protein and 6.5 nmol product/min/nmol protein | strikingly altered testosterone hydroxylase metabolite profile | 3.5 nmol product/min/nmol protein and 2.8 nmol product/min/nmol protein | 10.1 nmol product/min/nmol protein and 8.6 nmol product/min/nmol protein | 1.7 nmol product/min/nmol protein and 1.3 nmol product/min/nmol protein | 29.2, nmol product/min/nmol protein and 36.3 nmol product/min/nmol protein | 45.3 nmol product/min/nmol protein and 58.8 nmol product/min/nmol protein | 5.9 nmol product/min/nmol protein and 7.7 nmol product/min/nmol protein | –
3 | M7: CYP3A4 protein variant P416L (g.22026C>T, exon 11) [Mutant M7] | Only a very faint band | abolish | – | – | – | – | – | – | – | – | – | – | – | – | – | – | Detectable P450 holoprotein, in words (CYP3A4 holoenzyme; [9]): no detectable P450 holoprotein
4 | M1: CYP3A4 protein variant G56D (g.6004G>A, exon 3) [Mutant M1] | – | – | – | 5.6, 5.6 | 7.8, nmol product/min/nmol protein and 7.9^b nmol product/min/nmol protein | 1.4, 1.4 nmol product/min/nmol protein | 5.1, 5.1 | 21.3, nmol product/min/nmol protein and 21.3^b nmol product/min/nmol protein | 4.2, 4.2 nmol product/min/nmol protein | Neither M1 nor M4 mutant displayed alterations | <0.1, <0.1 nmol product/min/nmol protein | 5.1 nmol product/min/nmol protein and 4.8 nmol product/min/nmol protein | 0.2, 0.2 nmol product/min/nmol protein | 5.4 nmol product/min/nmol protein and 6.9 nmol product/min/nmol protein | 32.1, nmol product/min/nmol protein and 32.2^b nmol product/min/nmol protein | 1.2 nmol product/min/nmol protein and 1.1 nmol product/min/nmol protein | 7-BFC debenzylase activity relative to CYP3A4 (CYP3A4 [2]): 137%; Progesterone (steroid) hydroxylase metabolite profile compared with wild-type CYP3A4 (CYP3A4 [3]): Neither M1 nor M4 mutant displayed alterations; Testosterone hydroxylase activity relative to wild-type CYP3A4 (CYP3A4 [4]): 53%
5 | M5: CYP3A4 protein variant T363M (g.21867C>T, exon 11) [Mutant M5] | – | diminishes | 2.9^c nmol product/min/nmol protein | 9.8 | 5.9^c nmol product/min/nmol protein | 0.6 nmol product/min/nmol protein | 5.4 | 16.6^c nmol product/min/nmol protein | 3.1 nmol product/min/nmol protein | – | <0.1, <0.1 nmol product/min/nmol protein | 5.1^c nmol product/min/nmol protein | 0.1 nmol product/min/nmol protein | 3.6 nmol product/min/nmol protein | 19.5^c nmol product/min/nmol protein | 0.7 nmol product/min/nmol protein | 7-BFC debenzylase activity compared with wild-type protein, in words (CYP3A4 [5]): approximately half that of wild-type protein; Progesterone hydroxylase activity compared with wild-type protein, in words (CYP3A4 [6]): approximately half that of wild-type protein; Stability of the protein (consistency of P450 measurements in multiple determinations) (CYP3A4 holoenzyme): some instability; Expression level of P450 holoenzyme relative to CYP3A4 (CYP3A4 holoenzyme; [9]): less than 10%; Testosterone hydroxylase activity compared with wild-type protein, in words (CYP3A4 [7]): approximately half that of wild-type protein
6 | M4: CYP3A4 protein variant D174H (g.14304G>C, exon 6) [Mutant M4] | – | – | 2.3 nmol product/min/nmol protein and 1.9 nmol product/min/nmol protein | – | 5.5 nmol product/min/nmol protein and 5.4 nmol product/min/nmol protein | 0.5, 0.5 nmol product/min/nmol protein | 5.5 and 5.9 | 21.4 nmol product/min/nmol protein and 18.4 nmol product/min/nmol protein | 3.9 nmol product/min/nmol protein and 3.1 nmol product/min/nmol protein | Neither M1 nor M4 mutant displayed alterations | <0.1, <0.1 nmol product/min/nmol protein | 4.4 nmol product/min/nmol protein and 3.9 nmol product/min/nmol protein | 0.1, 0.1 nmol product/min/nmol protein | 5.3 nmol product/min/nmol protein and 5.6 nmol product/min/nmol protein | 32.4 nmol product/min/nmol protein and 29.8 nmol product/min/nmol protein | 1.3 nmol product/min/nmol protein and 0.9 nmol product/min/nmol protein | 7-BFC debenzylase activity relative to CYP3A4 (CYP3A4 [2]): < 50%; Progesterone (steroid) hydroxylase metabolite profile compared with wild-type CYP3A4 (CYP3A4 [3]): Neither M1 nor M4 mutant displayed alterations; Progesterone hydroxylase activity relative to wild-type CYP3A4 (CYP3A4 [8]): < 50%; Testosterone hydroxylase activity relative to wild-type CYP3A4 (CYP3A4 [4]): < 50%
7 | WT: wild-type CYP3A4 protein encoded by pSE3A4H vector, identical to that found in most Caucasians, expressed in E. coli [reference compound] | Bands of the expected size | – | 6.5^a nmol product/min/nmol protein | 7.1 | 12.1^a nmol product/min/nmol protein | 1.7 nmol product/min/nmol protein | 5.0 | 32.1^a nmol product/min/nmol protein | 6.4 nmol product/min/nmol protein | – | 0.2 nmol product/min/nmol protein | 9.3^a nmol product/min/nmol protein | 0.4 nmol product/min/nmol protein | 3.0 nmol product/min/nmol protein | 41.6^a nmol product/min/nmol protein | 1.2 nmol product/min/nmol protein | –

Source: patent US7655771B1, “Polymorphisms in the human cyp3a4 and cyp3a7 genes and their use in diagnostic and therapeutic applications” (PGx Health, LLC, priority 1999, dated 2010)
